According to the DeepSol protein solubility set:

assay: soluble on expression in E. coli; label from the status in PepcDB or PDB records

**Q.** Which “soluble on expression in E. coli” value does the source give for “MGSDKIHHHHHHMFVRVDISSLPLGKRMAQDIYDFDGHLLISKGIVVQESHLQQLRQRGYEYVYIQEEDEVNENSLNQGIAYLTDKQLPKAFSASVEGMRQMMDKVSSRHMIKLGEVEECIDLVYDHVLQTYNVLKHLQDLRNKDEYTLQHSVSVGILSIKIGQSLGLDADKLKNLGIAGLLHDIGKSMISLDIINKPGPLDDKEFKEIKKHPVYGYQIVNEIKLEDQDIPQAVLQHHEHQDGNGYPLGIRGDRINSFARIIAVADVFDALTSDRAYRPRMSLLQAVDIIIKSSCGQLDPLASRRLLSYVLDITTGEKVILSTGEEATVILKNEVDPARPLVRIGDNFLDLKTNRDVFIKDFAR” here?
**A.** not soluble

**Q.** With “MGSDKIHHHHHHMFYPEKRDGFSRTGKFEVEGRTVQTPAILEVGEIPEWDFGLAPTSLKFISEELYSRLRPINEEVEILTSLHLLSPRQLVQVFEDLSKEGVSPKPLYAASSALPSNVSLLIYLGADLVDNVLAIAKAYSGIYFLGEVEVEISKLRRLPCNCIHCRNRVVDEVENLLETTAKHNTEMLRMEVEKCRRLILNEELRNYVEGKVKLNPEFTAALRLSDSLRNHSTFPRFRKSRCNFSALESSSRFEVRYFFERALECYKPFSDTVLLLPCTARKPYLTSRTHRALRSKVKVNVNEIIISSPLVVPREFELLYPAVNYDTPVTGHWSEEEVSFVAGWLKRFIEKGGFRKVVAHVTGGYRKVVERVEDEVEAEVVYTAEKDVLSDESIERLKQEIESKGKVDLYRRILEHMLSYQFGITWSGKVAGRYPELELLEGKKRLARVDRIYGMLDIYEKIAAYLLEKNIYTVEIGDFEVKGTIFAGGVLRADEKIRPNDVVVFHNSRIFGVGLAAMSGKEMAGSEKGIAINVKRKFSF” as the sequence, how does the “soluble on expression in E. coli” value read?
**A.** not soluble

**Q.** For “MGSDKIHHHHHHMGCEIDRDASGLHSLQGLAGRDVSVAAGAKVGWSFMGTGTIATELVVEAIRSVGHSPLWVVSRSKRDADHFAEDLGIPHSTTELGPVLQDPSVGFAYISASLKRRPHYITAAAGAGKHILCDGPISCTSKTASALVELCRGARASLVVNQRLRASTIHQTMRRLVRDGDIGAVQSIVLIRGGPYQAPPNRSARDFNDGSGIYLDVSVENIDLARFLTGAEPVEATALITSEKMVPSQATYILRLSDGSLFQAHESFRTADIESMVLVAGDRGALIAQGTLNGRTSGTLMRRADGRNEAVPVRDHDVHLATVREFANTRGQTPSWLSQGTDSVIALRTVEAVAMSAKKRRTVPIQG”, which “soluble on expression in E. coli” value is on record?
**A.** not soluble

**Q.** For “MGSDKIHHHHHHMGHYEHKTKEELLEIVCKLEKKVEGLSSELDSLKKGRFRERYSTRILDALPDMLTVFDHNANIVELASSPTTNHVEGTTSDSIINSNVKDIVPEEAYESVRHNMDKVIHTGKSSTAEHSLMLDGVLHHYENRIFPLDDQYLLCMCRDVSQETEMAKINETQRSEIVRLNSLMNDILNNIPVYLFVKDTGNDFRYLYWNKAFAEHSGISVQRAVGSTDADIFPDKKDAEHFREDDLKVMKLGRIEYLENYTTMSGEVRTVTTMKTVVPSGGQHPYIIGVSWDVTEIKKTEKELIAARIKAEEADRMKSSFLANMSHEIRTPLNAIVGFSKLIIEADNECEKRQYADIVEHNSTVLLNLFNDILDLSALEAGSLELSYHPVRLKDICLQLYELHVKSVKPEVRLVLDEVDSQLCIQGDWERISQVLVNLITNAIKFTSVGEIHFGFQKKADMVQFYMSDTGKGIPAERVATIFQRFGKIDDFVQGTGLGLTICRMLVEKMGGRIWVRSKQGEGTVFYFTLPMAK”, which “soluble on expression in E. coli” value is on record?
**A.** not soluble

**Q.** Which “soluble on expression in E. coli” value does the source give for “MGSDKIHHHHHHMGIHLDFGISPKTFRQTYLYQKPKLFKGAVRNLEAASCKYINEIYQRADPTAPLFHLRKKGAIVPKEEYVESFDDLGKTRYRFIKSVIYEHMKNGASLVYNHINNEPFSDHIARQVARFAGAHTIVSGYLAFGSDESYKNHWDTRDVYAIQLFGKKRWQLTAPDFPMPLYMQQTKDTDISIPEHIDMDIILEAGDVLYIPRGWWHRPIPLGCETFHFAVGTFPPNGYNYLEWLMKKFPTIESLRHSFSDWEQDRTRINDTAAQIAAMIADPVNYEAFSEDFLGKERTDTAFHLEQFANPNATPLSDDVRLRLNANNLDTLEKGYLIGNGMKISVDELGKKVLEHIGKNEPLLLKNLLVNFNQAKHEEVRKLIYQLIELDFLEIL” here?
**A.** not soluble

**Q.** Which “soluble on expression in E. coli” value does the source give for “MGSDKIHHHHHHMGKKYDVYGVGNALVDIEYEVSPELLQELKIDKGVMTLLDEDSQNHILENLKNLHCHKSCGGSAANTMVAISQLGGKAFYSCKVANDEFGDFYIEDLLNSQVDTNLKNGDRQSGITGKCLVLVTPDADRTMNTFLGITEKFSTQELVSSALADSEYIYIEGYLVTSPTAKEAAIKAREIAEKAGVKTAMSLSDYNMVKFFKDGLLDIIGPGLDLIFANESEALELADTQDFQVAVDKLKTLSKKFAITRGSKGSVVFDGQELIEIAAPQVKAIDTVGAGDMYAGAFLYGITQSMSYEEAGKLASTAASKIVTSYGPRLKTEELKALVSA” here?
**A.** not soluble

**Q.** With “MGSDKIHHHHHHMGLLAGVEISDVPLKKIVTVCLAVLVAGCAGPQTQELLGSAIVAAPVTEIAGNHSIFIATTRKKSDDPNKVFDGERSATLNYARVNVTVPGLHQTGQIERRSRGKSDDPAKYFMASEVVGYDTQPKFSSALNADIAARGGRVMVFVHGYNTGFDDAVYRLTQIVHDSGYPGTPVLFSWASGAKTTDYVYDKESASAARDQLEVTLRMLQQSGARRIDIVAHSMGTWVTMETLRQMAISGDRDLGGKLGDVVLASPDIDVDVFKSQMRRYGKPDKPFILLLSDDDRALRLSGLIAGSRPRVGDYKDAADLASYGVTVVDLSEVKGSDSFNHTKFADNPVLVKMIGQRLREDDGFASDRDVTDRISLLGQ” as the sequence, how does the “soluble on expression in E. coli” value read?
**A.** not soluble

**Q.** For “MGSDKIHHHHHHMGMQARYDGVAVCAPITVPYVRFSPESAHWWTGAALRALGQKTGLNAGDIDGFCFASFSSAPDTVVGMVQHLGLSPRWMDHIPTGGASGIMALRRAARAVQCGDAEVVACVAADTNQIDSYRQTLAGFSRFSQDATYPYGFGGPNATFALITDNFMRQFGTTRETFGKLCVAQRENALSNPLALMKKPLTIEHYMNARPISDPVHLFDCVMPCAGAEAFLVTTPDKAEQLGLSTARILSTIERHNAFADDTVQFRGGWERDQEALWDRAGCGPGDVQCVQVYDDYPVIVAMQLADLGFCSKPGLNDFIAANEFTISGSLPLNTNGGQLSAGQAGAAGGFQNVTEGLRQILQCPLGEQVSDAHRALVSGFGLVNYDRGTCTGAAVLQREALR”, which “soluble on expression in E. coli” value is on record?
**A.** not soluble

**Q.** Which “soluble on expression in E. coli” value does the source give for “MGSDKIHHHHHHMGSLADTLRDRRQKLARLIDFPAILWSGGSNARNFPANRFPFRASSHFLYFAGLPLPNAAIHLEAGKLTLFIDDPAPGSALWHGETPKREEIAETIGADAAKPLSELTPFLAGAATIAVQDATTWTQQSQLLNRWVLPQSQPEGIDLELTKAIVTLRLIHDAGALAELRKAATVSVAAHKAGMVATANAKIEAEVRAAMESVFIAHNMTTAYNSIVTVHGEVLHNEQYHHPLQPGDLLLADVGGETELGWAADITRTWPVSGKFSPTQRDIYDVVLAAHDTCIANILPGVEYAEIHLVGARVIAEGLVNLGILRGNPEDLVEKDAHALFFPHGIGHLLGLDVHDMEDLGDLAGYEEGKKRSDRFGLGYLRLNRPLRTGMLVTIEPGFYQVPAILNDEKIRSRYQYTVNWERLSQFADVRGIRIEDDVLVTDTGSEVLTAALPNDADTVEHLVNKI” here?
**A.** not soluble

**Q.** For “MGSDKIHHHHHHMGTDPIEARFEQLNVWRNGDKRAPHKPLLILLALASWQRGAREMRFAECEQKLGELIREFGPAAKAVHPEYPFWRLQNDGLWVVEADQEMRTRQSNSDPLKSELRAAGARGHFFADVAEELERRPALIGRVAQRVLDAHFPETLHEDILAAVGLEVSEETESTTRRRRDPNFRNAVLQAYQYRCAVCELDLRIGSITVGLEAAHVKWHQARGPDAVHNGVALCSLHHKLFDLGAFHIGADRRILVSEQVHGTSRFEEVLLRHHGALALEPVRSEHKVLRDFVGWHFDQVFKKEARPAT”, which “soluble on expression in E. coli” value is on record?
**A.** not soluble

**Q.** Which “soluble on expression in E. coli” value does the source give for “MGSDKIHHHHHHMGTHTEAMPSTTFAQTAVLSQRQRATLNALSAFPQGAQVSEIAASLGLHVNTVRGHLEELVTKNLVRTAPLPSTGRGRPVLMYHATSATPETVAQEYLSLISLLIQHIDLRQPDEIDEVAKVLGKQWAHSIFADHHLEELNGEQTLITLINYLRHLGFDPEVEKTQDPTTSMLQLRTCPFGSMAHAPLSFVCRAHEGMLSAVEKTGGISFELTPLSAPHQCSIVAQLHGNETIHRQRGEEHPHAGHR” here?
**A.** not soluble

**Q.** Which “soluble on expression in E. coli” value does the source give for “MGSDKIHHHHHHMGYAYLRGLRNARLQNNNDETSTVFRSCSVPTFQKMRSAYGRRVVKDVFAPNGGVFINRLVEYVTGQGHDFENMLAQKLAISEPLSSSAQVLPVYEHSLVFGLAERVCNDTSIGYALAYQCTLRDAGLVGYAVSASETAGEALYTLSRLSNVFEVVSASASGGLVDLRWDFGSQGKLDLRHWSEFIATLLVRSLKTLCTGAVAPVGVEFTHTAPSSSEQAVLAFGVKPTYRGRLNRLTFREQDLRQPLRSADAGLLRLLLEHAELLRRRPDRNSNDLSITVERLIMDGMSEGDASLAQVAESLDMSQRTLSRKLASEGTSFFAILEGVRKSLALRYLQQNEKSLSEISFALGYSSLSSFNDAFRRWYDQSPGSYRSDALKEAAVKS” here?
**A.** not soluble

**Q.** With “MGSDKIHHHHHHMGYKNILIDFDDTIVDFYDAEEWAFHYMANVFNHKATKDDFLTFKKINHQHWEAFQQNKLTKSEVLSERFVNYFKHHQMEVDGHRADVLFRNGLAEAKVKYFDQTLETIVELSKRHDLYIVTNGVTETQKRRLNQTPLHKYIKKIFISEETGYQKPNPEFFNYVFNDIGEDERQHSIIVGDSLTSDILGGINAGIATCWFNFRGFDHNPGIIPDYEINSWKQLNDIVR” as the sequence, how does the “soluble on expression in E. coli” value read?
**A.** not soluble

**Q.** For “MGSDKIHHHHHHMHIAIASGKGGTGKTTLAVNLAVHAARSGHPTVLADCDVEEPNAHLFMPGEPVMTLTHSLPVPAVDKAKCLGDSCRKCVEECRFKALTWMKGVMAFSELCHGCGLCMMICPSGAITETTRPVGTVEIRTPQLPVPAGASAGAAALTLVSGRMRISEAMAPPLIREVKQQAHAVSAGTPNGLTFWDSPPGTSCPMISTVENADYSVLVTEPTPFGLHDLRLAVETLHTLGRPFGVVINRDGMGDGRVREYLDRHRIPLLGTVPHSPQAAQAVSSGRLLIDAVDGMTGCFDRLLHTVLRHAHNAAQHGQEKTA”, which “soluble on expression in E. coli” value is on record?
**A.** not soluble

**Q.** Which “soluble on expression in E. coli” value does the source give for “MGSDKIHHHHHHMHLFKRAEMLNVIDTLATNYLKGKVRAVRLSVIALLSGGHILLEDIPGLGKTTLALALARALGLSFGRVQCTSDLLPSDITGLSILNRDENRFTFMPGPIFNNVVLMDEINRAMPKTQSALLEAMEERRVTVEGTTHPLPEPFLVIATQNPVEQVGTYPLPESQLDRFMVRSGIGYPPEAIEKAIIKGGSIRDGIRHLEPLVTVNDIIEAQRTVRESIYLSDKVVDYIHAIVAATRSHRAVTSGVSTRGAISMAETAKAHAYLEGRDYVIPEDVKAIAAPVGAHRLILGFDNENLDKGELLHAILATIPVPLA” here?
**A.** not soluble

**Q.** With “MGSDKIHHHHHHMHLGVVVPRVDDHSTIELAVEAEGHGYDSVWLNELWGASSVVELTDIATRTDDIEIGSAILNVFSRSPAVLAMTATTLDRVSDGRAVLGLGTSTARSIENMHSMEFERPVRRAHETIDIIKQLMTGDERVTYDGEAVSVRGVPPLDRDVPVYHAALGPANRRVVARLADGWLPHMIAFSELESAFDYIAETARDADRDPDDITVAPYVPAVVHEDSERATEELRQHIAYYVGSGEGYRRAVAETYPDRAERIADAWQAGDRGEATELVTDEMTADLGIAGTPEQAREKRDKIADRAVIDRLLLTVPQQVDGELARKTIRALGPN” as the sequence, how does the “soluble on expression in E. coli” value read?
**A.** not soluble

**Q.** For “MGSDKIHHHHHHMHLTQSTISQQLARLEESVGHSLIDRTARPLQLTASGEYLIGYAQRILTLQQEAEAVLKDPAGSIPIRIGLPEDMMSTAMAEVFGLFAQEHRTIRLDVTSGLSRNLTERYRNGELDIVIVKESAASADCYASFPEEMAWFESENAITPLSEPIRLVTFPQGGLYRDEMFETLERERRRWYIAFTGSSLESVLVSVETGLGISLLPVSTTKGRRVRRYKSLGEASPMVVSIYTWEKAGLISQLVDHMTTVLHDRFQSGS”, which “soluble on expression in E. coli” value is on record?
**A.** not soluble
